Test results taken from EP4714976A1.

What was measured:
[1] = target: extracellular domain of the FGFR2b protein (NP_075259.4) (UniProt P21802); test: phage ELISA
[2] = target: FGFR1 (acro) (UniProt P11362); test: ELISA, antibody 10 µg/mL
[3] = target: recombinant mouse FGFR2b (mouse) (UniProt P21803); test: BLI, antibody on AHC2 sensor
[4] = target: recombinant mouse FGFR2b (mouse) (UniProt P21803); test: ELISA, antibody 1ug/mL

Chain of recombinant mouse FGFR2b (mouse) (P21803 22-377): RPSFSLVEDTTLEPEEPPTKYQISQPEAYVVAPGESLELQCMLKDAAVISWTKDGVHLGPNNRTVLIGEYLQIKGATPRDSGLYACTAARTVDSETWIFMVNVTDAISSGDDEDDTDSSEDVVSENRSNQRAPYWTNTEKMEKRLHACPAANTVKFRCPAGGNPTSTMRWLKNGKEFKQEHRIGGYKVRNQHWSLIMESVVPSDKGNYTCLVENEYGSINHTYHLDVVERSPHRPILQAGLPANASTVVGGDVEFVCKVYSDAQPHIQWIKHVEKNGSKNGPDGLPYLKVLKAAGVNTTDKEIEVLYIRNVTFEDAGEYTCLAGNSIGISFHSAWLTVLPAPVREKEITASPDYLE
Chain of FGFR1 (acro) (P11362 22-376): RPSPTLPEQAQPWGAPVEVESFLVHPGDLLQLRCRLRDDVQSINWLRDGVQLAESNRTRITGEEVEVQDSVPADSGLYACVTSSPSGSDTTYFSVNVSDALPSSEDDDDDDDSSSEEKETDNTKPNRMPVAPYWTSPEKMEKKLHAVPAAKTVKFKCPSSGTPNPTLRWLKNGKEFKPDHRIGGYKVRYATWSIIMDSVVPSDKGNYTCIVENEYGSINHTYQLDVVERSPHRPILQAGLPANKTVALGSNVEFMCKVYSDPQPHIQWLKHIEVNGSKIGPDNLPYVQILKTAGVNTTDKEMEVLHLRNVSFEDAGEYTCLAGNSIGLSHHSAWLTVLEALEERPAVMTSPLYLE
Chain of extracellular domain of the FGFR2b protein (NP_075259.4) (P21802 other isoform, or with tags, fused parts or gaps): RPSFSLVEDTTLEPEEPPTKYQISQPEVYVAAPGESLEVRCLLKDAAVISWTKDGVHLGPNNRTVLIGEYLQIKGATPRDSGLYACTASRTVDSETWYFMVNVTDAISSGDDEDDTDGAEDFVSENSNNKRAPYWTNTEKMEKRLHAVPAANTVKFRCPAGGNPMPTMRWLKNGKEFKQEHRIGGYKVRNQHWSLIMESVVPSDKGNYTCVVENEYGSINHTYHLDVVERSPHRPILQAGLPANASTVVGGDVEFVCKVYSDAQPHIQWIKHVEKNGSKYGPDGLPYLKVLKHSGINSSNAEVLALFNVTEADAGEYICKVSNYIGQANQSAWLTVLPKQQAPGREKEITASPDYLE

B1: 2B2 scFv displayed on phage (scFv)
scFv: QLQLQQSGAELVKPGASVKMSCKASGYTFASYNLHWVKQTPGQGLEWIGLIYPENGDTSYNQKFKDKATLTADKSSTTAYIQLSSLASEDSAVYFCARGGFDYWGQGTTLTVSSGGGGSGGGGSGGGGSDIVMTQSQKFMSTSVGDRVSVTCKASQNVGTNVAWYQQKPGQSPKALIYSASYRYSGVPDRFTGSGSGTDYTLTISSVQAEDLALYYCQQHYSTPYTFGGGTKLELK
OD (450 nm) value [1]: 2.38

B2: 3C7 scFv displayed on phage (scFv)
scFv: EIQLQQSGAELVKPGASVKMSCKASGYIFRNYYIHWVKRTPGQGLEWIGAIYPDNGDTSYNQRFKVKATLTADTSSSTAYMQLSSLTSEDSAVYYCARAFTYWGQGTTLTVSSGGGGSGGGGSGGGGSDIQMIQSPASLSASVGETVTITCGASENIYGALNWYQRKQGKSPQLLIYGATNLADGMSSRFSGSGSGRQYSLKISSLHPDDVATYYCQNVLSTPYTFGGGTKLEIK
OD (450 nm) value [1]: 2.02

B3: 3E7 scFv-Fc (Fc fusion)
chain: QVQLQQSGAELVKPGASVKMSCKASGYTFTIYNIHWVRQTPGQGLEWIGLIYPDNGDTSYNQKFKAKATLTADKSSSTAYMQLSSLTSEDSAVYYCARGGFDYWGQGTTLTVSSGGGGSGGGGSGGGGSNIVMTQSQKFMSTSVGDRVSVTCKASQNVGTNVAWYQQKPGQSPKALIYSASYRYSGVPDRFTGSGSGTDFTLTISGVQAEDLADYYCQQHYNTPYTFGGGTKLEIKESKYGPPCPPCPAPEAAGGPSVFLFPPKPKDTLMISRTPEVTCVVVDVSQEDPEVQFNWYVDGVEVHNAKTKPREEQFNSTYRVVSVLTVLHQDWLNGKEYKCKVSNKGLPSSIEKTISKAKGQPREPQVYTLPPSQEEMTKNQVSLTCLVKGFYPSDIAVEWESNGQPENNYKTTPPVLDSDGSFFLYSKLTVDKSRWQEGNVFSCSVMHEALHNHYTQKSLSLSLG
OD (450 nm) value [2]: 0.093 | Kd [3]: 40.9 nM | koff [3]: 0.00175 s⁻¹ | kon [3]: 42800 M⁻¹ s⁻¹ | OD (450 nm) value [4]: 2.29

B4: 3F10 scFv displayed on phage (scFv)
scFv: EVQLQQSGAELVKPGASVKMSCKASGYTFSFYNIHWVRQTPGQGLEWIGLIYPDNGDTSYNQKFKAKATLTADKSSSTAYMQLSSLTSEDSAVYYCARGGFDYWGQGTTLTVSSGGGGSGGGGSGGGGSDVLMTQSPASLSASVGETVTITCGASENIYGALNWYQRKQGKSPQLLIYGATNLADGMSSRFSGSGSGRQYSLKISSLHPDDVATYYCQNVLSTPYTFGGGTKLEIK
OD (450 nm) value [1]: 1.85

B5: 3B7 scFv displayed on phage (scFv)
scFv: EVQLQQSGAELVKPGASVKMSCKASGYTFRYYNMHWVKRTPGQGLEWIGLIYPDNGDTSYNQKFKGKATLTADTSSSTAYMQLSSLTSEDSAVYYCARGGFDYWGQGTTLTVSSGGGGSGGGGSGGGGSDIQMTQSPASLSASVGETVTITCGASENIYGALNWYQRKQGKSPQLLIYGATNLADGMSSRFSGSGSGRQYSLKISSLHPDDVATYYCQNVLSTPYTFGGGTKLELK
OD (450 nm) value [1]: 2.03

B6: 3A8 scFv displayed on phage (scFv)
scFv: QVQLQQSGAELVKPGASVKMSCKASGYTFTIYNIHWVRQTPGQGLEWIGLIYPDNGDTSYNQKFKAKATLTADKSSSTAYMQLSSLTSEDSAVYYCARGGFDYWGQGTSLTVSSGGGGSGGGGSGGGGSDIVMTQSQKFMSTSVGDRVSVTCKASQNVGTNVAWYQQKPGQSPKALIYSASYRYSGVPDRFTGSGSGTDFTLTISNVQAEDLADYFCQQHYSTPYTFGGGTKLEMK
OD (450 nm) value [1]: 2.22

B7: 3A12 scFv-Fc (Fc fusion)
chain: EVQLQQSGAELVKPGASVKMSCKASGYTFSFYNVHWVRQTPGQGLEWIGLIYPDNGDTSYNQKFKAKATLTADKSSSAAYMQLSSLTSEDSAVYYCARGGFDYWGQGTSLTVSSGGGGSGGGGSGGGGSDIVMTQSHKFMSTSVGDRVNITCKASQDVSTAVAWYQQKPGQSPKLLIYSASYRYSGVPDRFTGSGSGTDFTFTISSVQAEDLAVYYCQQHYSTPYTFGGGTKLEMKESKYGPPCPPCPAPEAAGGPSVFLFPPKPKDTLMISRTPEVTCVVVDVSQEDPEVQFNWYVDGVEVHNAKTKPREEQFNSTYRVVSVLTVLHQDWLNGKEYKCKVSNKGLPSSIEKTISKAKGQPREPQVYTLPPSQEEMTKNQVSLTCLVKGFYPSDIAVEWESNGQPENNYKTTPPVLDSDGSFFLYSKLTVDKSRWQEGNVFSCSVMHEALHNHYTQKSLSLSLG
OD (450 nm) value [2]: 0.076 | Kd [3]: 10.7 nM | koff [3]: 0.000485 s⁻¹ | kon [3]: 45400 M⁻¹ s⁻¹ | OD (450 nm) value [4]: 2.91

B8: 3G10 scFv displayed on phage (scFv)
scFv: EVQLQQSGPELVKPGASVKMSCKASGYTFATYNMHWVKQTTGQGLEWIGAIYPDNGDTFYNRKFKDKATLTADKSSTTAYMQLSSLTSEDSAVYYCARGDFAYWGQGTLVTVSAGGGGSGGGGSGGGGSDVLMTQSPASLSASVGETVTITCGASENIYGALNWYQRKQGKSPQLLIYGATNLADGMSSRFSGSGSGRQYSLKISSLHPDDVATYYCQNVLSTPYTFGGGTKLEMK
OD (450 nm) value [1]: 1.95

B9: 2B1 scFv-Fc (Fc fusion)
chain: EVQLQQSGAELVKPGASVKMSCKASGYTFASYNLHWVKQTPGQGLEWIGLIYPENGDTSYNQKFKGKATLTADKSSSTAYIQLSSLTSEDSAVYFCARGGFDYWGQGTSLTVSSGGGGSGGGGSGGGGSDIQMIQSPASLSVSVGETVTITCRASENIYSNLAWYQQKQGKSPQLLVYNAKTLADGVPSRFSGSGSGTQYSLKINSLQPEDFGSYYCQHFWSTPYTFGGGTKLEIKESKYGPPCPPCPAPEAAGGPSVFLFPPKPKDTLMISRTPEVTCVVVDVSQEDPEVQFNWYVDGVEVHNAKTKPREEQFNSTYRVVSVLTVLHQDWLNGKEYKCKVSNKGLPSSIEKTISKAKGQPREPQVYTLPPSQEEMTKNQVSLTCLVKGFYPSDIAVEWESNGQPENNYKTTPPVLDSDGSFFLYSKLTVDKSRWQEGNVFSCSVMHEALHNHYTQKSLSLSLG
OD (450 nm) value [2]: 0.076 | Kd [3]: 23 nM | koff [3]: 0.00126 s⁻¹ | kon [3]: 54800 M⁻¹ s⁻¹ | OD (450 nm) value [4]: 2.72

B10: 3A3 scFv displayed on phage (scFv)
scFv: QVQLQQSGAELVKPGASVKMSCKASGYTFTTYNIHWVRQTPGQGLEWIGLIYPDNGDTSYNQKFKAKATLTADKSSSTAYMHLSSLTSEDSAVYYCARGGFDYWGQGTTLTVSSGGGGSGGGGSGGGGSDIVMTQSHKFMSTSVGDRVSITCKASQDVNTDVSWYQQKPGQSPKLLIYSASYRYTGVPTRFTGSGSGTDFTFTISGVQAEDLADYYCQQHYNTPYTFGGGTRLEIK
OD (450 nm) value [1]: 2.33

B11: 3B4 scFv displayed on phage (scFv)
scFv: EVQLQQSGADLVKPGASVKMSCKASGYTFSYYNMHWVRRTPGQGLEWIGLIYPDNGDTSYNQKFKGKATLTADTSSSTAYMQLSSLTSEDSAVYYCARGGLDYWGQGTTLTVSSGGGGSGGGGSGGGGSDIQMIQSPASMSASVGETVTITCGASENIYGALNWYQRKQGKSPQLLIYGATNLADGMSSRFSGSGSGRQYSLKISSLHPDDVATYYCQNVLSTPYTFGGGTKLEMK
OD (450 nm) value [1]: 2.47

B12: 3C9 scFv displayed on phage (scFv)
scFv: EIQLQQSGAELVKPGASVKMSCKASGYIFRYYNMHWVKRTPGQGLEWIGLIYPDNGDTSYNQKFKGKATLTADTSSSTAYMQLSSLTSEDSAVYYCARGGLDYWGQGTTLTVSSGGGGSGGGGSGGGGSDIQMIQSPASLSASVGETVTITCGASENIYGALNWYQRKQGKSPQLLIYGATNLADGMSSRFSGSGSGRQYSLKISSLHPDDVATYYCQNVLSTPYTFGGGTKLEIK
OD (450 nm) value [1]: 2.08
